Target: EPHA2 (human (endogenous in HSC-4)) (UniProt P29317)
Experiment: proximity ligation

Chain of UniProt P29317 (P29317 24-976): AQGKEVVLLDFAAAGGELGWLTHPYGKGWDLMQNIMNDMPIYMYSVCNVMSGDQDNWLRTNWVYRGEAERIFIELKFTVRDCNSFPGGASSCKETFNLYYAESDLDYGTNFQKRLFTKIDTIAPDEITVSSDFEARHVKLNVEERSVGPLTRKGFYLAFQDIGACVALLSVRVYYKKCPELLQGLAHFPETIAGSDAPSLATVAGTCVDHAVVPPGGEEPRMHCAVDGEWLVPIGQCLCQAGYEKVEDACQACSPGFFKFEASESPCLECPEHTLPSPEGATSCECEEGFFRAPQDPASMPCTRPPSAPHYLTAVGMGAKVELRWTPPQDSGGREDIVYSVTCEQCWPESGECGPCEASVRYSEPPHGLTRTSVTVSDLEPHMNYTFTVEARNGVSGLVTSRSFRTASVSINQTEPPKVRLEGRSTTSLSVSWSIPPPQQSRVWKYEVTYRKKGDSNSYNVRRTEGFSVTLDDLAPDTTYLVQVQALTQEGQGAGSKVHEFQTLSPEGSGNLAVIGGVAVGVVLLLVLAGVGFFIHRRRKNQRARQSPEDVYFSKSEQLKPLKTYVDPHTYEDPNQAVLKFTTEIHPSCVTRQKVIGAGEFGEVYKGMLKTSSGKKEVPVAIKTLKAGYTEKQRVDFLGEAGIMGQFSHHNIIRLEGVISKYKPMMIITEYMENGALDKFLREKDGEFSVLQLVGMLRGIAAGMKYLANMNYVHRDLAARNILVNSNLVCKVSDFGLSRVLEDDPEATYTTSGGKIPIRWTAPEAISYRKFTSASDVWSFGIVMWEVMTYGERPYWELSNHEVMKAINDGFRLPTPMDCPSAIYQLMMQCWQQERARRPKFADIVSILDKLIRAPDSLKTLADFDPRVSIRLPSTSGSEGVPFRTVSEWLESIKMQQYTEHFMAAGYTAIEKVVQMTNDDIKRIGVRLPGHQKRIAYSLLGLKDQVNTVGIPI

Ephrin-B1 phosphorylated at Y324/329 (ligand)
PLA foci per cell (foci per cell): 2
